Measured values taken from the supplement of paper PMC10724198.
Where “and” joins values, the source holds several entries; their conditions need not be identical. Identical values can stand only once. ± gives the standard deviation of the averaged measurements.

How the values were obtained:
Saccharomyces cerevisiae [1] = assay: protein stability index of tFT-peptide fusion in deletion strain of DOA10 (PSI (0-1 scale)); higher = more stable (slower turnover)
Method: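 MPS profiling in S. cerevisiae of two library types built from selected 12-aa C-degron peptides (IN1, IN2, LN1, LN3, VN2, R1-R5, W1-W3, Atg1 and Rpa12 C-termini): saturation mutagenesis libraries and C-terminal +1 capping libraries (13 aa). Each peptide is fused to the C-terminus of a sfGFP-mCherry timer, after a GGGS linker. Cells are FACS-sorted into 8 mCherry/sfGFP bins and sequenced. PSI runs from 0 (unstable) to 1 (stable), measured once in wild type and in the das1Δ or doa10Δ background.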

Saccharomyces cerevisiae [2] = assay: protein stability index of tFT-peptide fusion in wild type (PSI (0-1 scale)); higher = more stable (slower turnover); conditions: genetic background: wild type
Saccharomyces cerevisiae [3] = assay: protein stability index of tFT-peptide fusion (C-terminal peptide) (PSI (0-1 scale)); higher = more stable (slower turnover); conditions: genetic background: wild type; temperature: 30 C
Saccharomyces cerevisiae [4] = assay: as above
Method: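 MPS profiling in S. cerevisiae of the tFT-X12 degron library: putative degron peptides plus stable controls, 12 aa, fused to the C-terminus of a sfGFP-mCherry timer. Cells are FACS-sorted into 8 mCherry/sfGFP bins and deep-sequenced. PSI runs from 0 (unstable) to 1 (stable). Backgrounds are wild type, das1Δ and doa10Δ at 30 °C, and wild type, das1Δ, cdc34-1 and cdc53-1 at 37 °C; 2-3 technical replicates each.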

Saccharomyces cerevisiae [5] = assay: protein stability index of tFT-peptide fusion in deletion strain of DAS1 (PSI (0-1 scale)); higher = more stable (slower turnover)
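For protein stability index of tFT-peptide fusion (C-terminal peptide) in this document: PSI is a weighted mean of sequencing reads over stability bins, variants kept only with over 10 reads, mCherry proximal and sfGFP distal, peptide attached via GGGS linker.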
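For protein stability index of tFT-peptide fusion in deletion strain of DAS1 in this document: PSI is a weighted mean of each variant's read distribution over the sorted stability bins, computed only for variants having over 10 reads in total.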
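For protein stability index of tFT-peptide fusion in deletion strain of DOA10 in this document: PSI per variant is the weighted mean of its sequencing read distribution over the sorted stability bins, counting only variants with over 10 reads summed across bins.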
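For protein stability index of tFT-peptide fusion in wild type in this document: PSI derived as read-weighted mean over the 8 sorting bins, only variants exceeding 10 total reads kept, mCherry placed adjacent to the peptide and sfGFP distal.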

Row | Sequence | protein stability index (Saccharomyces cerevisiae [1]) | protein stability index (Saccharomyces cerevisiae [2]) | other results
1 | CLVSLPRLLFFR | 0.664 | 0.0729 | 
2 | GLYMCSVGCCFR | 0.651 | 0.611 | 
3 | RKLRVLLPLYFR | 0.668 | 0.282 | 
4 | GLYMCSVGCWFRA | 0.44 | 0.225 | 
5 | GPYMCSVGCWFR | 0.667 | 0.413 | 
6 | RHTRLDAIYFRI | 0.679 | 0.517 | 
7 | RSLRQLLPLYFR | 0.68 | 0.466 | 
8 | RSLRVLLPLYFRS | 0.644 | 0.3 | 
9 | ESLRVLLPLYFR | 0.683 | 0.308 | 
10 | GLSMCSVGCWFR | 0.671 | 0.235 | 
11 | GLYECSVGCWFR | 0.678 | 0.526 | 
12 | GLYMCSQGCWFR | 0.691 | 0.463 | 
13 | GLYMGSVGCWFR | 0.704 | 0.303 | 
14 | RSLRVLLALYFR | 0.552 | 0.287 | 
15 | RVTRLFAIYFRI | 0.409 | 0.177 | 
16 | CLSSLPILLFFR | 0.641 | 0.0943 | 
17 | CLVSLPILLQFR | 0.642 | 0.344 | 
18 | RVTRNDAIYFRI | 0.694 | 0.552 | 
19 | AITPPMCPLLLR | 0.686 | 0.458 | 
20 | CWVSLPILLFFR | 0.54 | 0.0534 | 
21 | RSLHVLLPLYFR | 0.634 | 0.273 | 
22 | RSLRTLLPLYFR | 0.686 | 0.455 | 

Row | Sequence | protein stability index (Saccharomyces cerevisiae [1]) | protein stability index (Saccharomyces cerevisiae [2]) | other results
23 | RVTRLDAIHFRI | 0.7 | 0.66 | 
24 | AITLYMCPLLLR | 0.628 | 0.309 | 
25 | RSLRVLLPLVFR | 0.676 | 0.356 | 
26 | AITLPMNPLLLR | 0.685 | 0.392 | 
27 | GLYMCSVGCWFA | 0.371 | 0.35 | 
28 | AIGLPMCPLLLR | 0.653 | 0.297 | 
29 | AITLPMAPLLLR | 0.666 | 0.253 | 
30 | CLVSLPHLLFFR | 0.67 | 0.0749 | 
31 | ALTLPMCPLLLR | 0.646 | 0.21 | 
32 | WSLRVLLPLYFR | 0.636 | 0.269 | 
33 | CLVSLPILRFFR | 0.657 | 0.612 | 
34 | RSLIVLLPLYFR | 0.597 | 0.288 | 
35 | CLVNLPILLFFR | 0.597 | 0.0622 | 
36 | AITLPMCPTLLR | 0.678 | 0.581 | 
37 | RSLRALLPLYFR | 0.684 | 0.491 | 
38 | GLYWCSVGCWFR | 0.646 | 0.246 | 
39 | VSLRVLLPLYFR | 0.611 | 0.283 | 
40 | RSLCVLLPLYFR | 0.616 | 0.247 | 
41 | GLYMCTVGCWFR | 0.527 | 0.219 | 
42 | RLIQPLPVQFLN |  | 0.0747 and 0.0662 | protein stability index (Saccharomyces cerevisiae [3]): 0.0935 ± 0.0062; protein stability index (Saccharomyces cerevisiae [4]; genetic background: cdc34-1, temperature: 37 C): 0.2752 ± 0.002; protein stability index (Saccharomyces cerevisiae [4]; genetic background: cdc53-1, temperature: 37 C): 0.644 ± 0.089; protein stability index (Saccharomyces cerevisiae [4]; genetic background: das1 deletion, temperature: 30 C): 0.616 ± 0.026; protein stability index (Saccharomyces cerevisiae [4]; genetic background: das1 deletion, temperature: 37 C): 0.732 ± 0.066; protein stability index (Saccharomyces cerevisiae [4]; genetic background: doa10 deletion, temperature: 30 C): 0.0708 ± 0.018; protein stability index (Saccharomyces cerevisiae [4]; genetic background: wild type, temperature: 30 C): 0.0754 ± 0.0037; protein stability index (Saccharomyces cerevisiae [4]; genetic background: wild type, temperature: 37 C): 0.0963 ± 0.012; protein stability index (Saccharomyces cerevisiae [5]): 0.672 and 0.598
43 | RSLRVLLPLYMR | 0.696 | 0.326 | 
44 | GLYMCSVGCWRR | 0.662 | 0.62 | 

Row | Sequence | protein stability index (Saccharomyces cerevisiae [1]) | protein stability index (Saccharomyces cerevisiae [2]) | other results
45 | RVTALDAIYFRI | 0.69 | 0.558 | 
46 | RVTRTDAIYFRI | 0.704 | 0.499 | 
47 | GGYMCSVGCWFR | 0.687 | 0.439 | 
48 | CNVSLPILLFFR | 0.642 | 0.0527 | 
49 | GLYMCSVGCWFRI | 0.455 | 0.11 | 
50 | CLVSLPILLFFRH | 0.577 | 0.0656 | 
51 | RSLRVLLPLYFG | 0.591 | 0.452 | 
52 | RVTRLDAIYFRM | 0.674 | 0.422 | 
53 | AITLPICPLLLR | 0.667 | 0.194 | 
54 | GLYTCSVGCWFR | 0.682 | 0.392 | 
55 | AITLPHCPLLLR | 0.713 | 0.264 | 
56 | RSLRVFLPLYFR | 0.693 | 0.127 | 
57 | RVTRLDASYFRI | 0.715 | 0.676 | 
58 | GLYMCSVGCWFRC | 0.433 | 0.188 | 
59 | SVTRLDAIYFRI | 0.716 | 0.363 | 
60 | RELRVLLPLYFR | 0.684 | 0.19 | 
61 | RSLTVLLPLYFR | 0.662 | 0.24 | 
62 | AITLPMCPLWLR | 0.695 | 0.239 | 
63 | RVTRFDAIYFRI | 0.645 | 0.287 | 
64 | CLVSLPILLFFRD | 0.594 | 0.103 | 
65 | RSLRVLLGLYFR | 0.662 | 0.392 | 
66 | RVTRLDAIYFRR | 0.708 | 0.653 | 

Row | Sequence | protein stability index (Saccharomyces cerevisiae [1]) | protein stability index (Saccharomyces cerevisiae [2]) | other results
67 | AITLPMCPLLLRY | 0.633 | 0.152 | 
68 | CLVSLPILLFFA | 0.346 | 0.256 | 
69 | RSLRVLLPLGFR | 0.682 | 0.482 | 
70 | AITLPMWPLLLR | 0.673 | 0.124 | 
71 | RVTRLDVIYFRI | 0.649 | 0.3 | 
72 | AITLPMCPILLR | 0.619 | 0.216 | 
73 | AWTLPMCPLLLR | 0.665 | 0.111 | 
74 | GLYMCSVGEWFR | 0.686 | 0.663 | 
75 | AVTRLDAIYFRI | 0.696 | 0.317 | 
76 | RVTRLDAIYFRIM | 0.129 | 0.0601 | 
77 | RVTRLDAIYFRC | 0.66 | 0.431 | 
78 | RVARLDAIYFRI | 0.663 | 0.449 | 
79 | AITLPMCPLCLR | 0.702 | 0.556 | 
80 | GLYMCSVGYWFR | 0.603 | 0.213 | 
81 | GTYMCSVGCWFR | 0.675 | 0.344 | 
82 | AITLPMCPLLLRL | 0.563 | 0.12 | 
83 | CLVSLPILYFFR | 0.605 | 0.468 | 
84 | CLVSLPILKFFR | 0.666 | 0.63 | 
85 | RVTRLDAIYCRI | 0.696 | 0.621 | 
86 | RVTRLDSIYFRI | 0.703 | 0.46 | 
87 | RVTRLDCIYFRI | 0.647 | 0.367 | 
88 | RSLRVLLPLQFR | 0.635 | 0.472 | 

Row | Sequence | protein stability index (Saccharomyces cerevisiae [1]) | protein stability index (Saccharomyces cerevisiae [2]) | other results
89 | RVTRLDAIYFRIN | 0.125 | 0.0776 | 
90 | GLYMCSVHCWFR | 0.453 | 0.371 | 
91 | CLVSLPILLFFRP | 0.563 | 0.068 | 
92 | AGTLPMCPLLLR | 0.671 | 0.461 | 
93 | RVTRLDAIYFRD | 0.72 | 0.688 | 
94 | RVTRLDAIVFRI | 0.693 | 0.534 | 
95 | AITLPDCPLLLR | 0.711 | 0.437 | 
96 | CLVSLPILLFFRS | 0.533 | 0.0709 | 
97 | GLYMCSVFCWFR | 0.365 | 0.222 | 
98 | CLRSLPILLFFR | 0.619 | 0.0732 | 
99 | RVTRLDHIYFRI | 0.717 | 0.281 | 
100 | RVTRYDAIYFRI | 0.603 | 0.332 | 
101 | CLISLPILLFFR | 0.552 | 0.0542 | 
102 | RVTRLDAIYFRIC | 0.103 | 0.0626 | 
103 | CLVSLPGLLFFR | 0.656 | 0.126 | 
104 | RSLRVLQPLYFR | 0.685 | 0.285 | 
105 | CLVSLPDLLFFR | 0.709 | 0.188 | 
106 | RCLRVLLPLYFR | 0.647 | 0.257 | 
